Measured values as given in the nanobody polyreactivity screen of Harvey et al. (2022).

Experiment: yeast display, Sf9 membrane polyspecificity reagent, FACS + sequencing; frameworks hold sequencing errors
How it was run: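 After 36–48 hours of galactose induction, yeast (Saccharomyces cerevisiae BJ5465) displaying a synthetic nanobody library were stained at 4 °C for 1 hour with 10% biotinylated, detergent-solubilized Sf9 membrane reagent. Streptavidin microbeads enriched the stained cells before FACS sorting into low and high (top ~1%) gates on anti-HA and streptavidin fluorescence. Each clone's polyreactivity label reflects its gate of origin.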
In the case of “QVQLVESWGGLVQAGGSLRLICAASGSTFYYNAMGWYRQAPGKEREFVAAISSRRGSTYYADSVKGRFTISRDNAKNTVYLQMNSLKQEDTAVYYCAAKYSHRYDWGQGTQVTVSA”, the “polyreactivity (PSR sort gate)” value is reported as “high polyreactivity”.
For “QVQLVESWGGLVQAGGSLRLSCAASGFTFRAYAMGWYRQAPGKERELVAAISTGGGSTYYADSVKGRFTISRDNAKNTVYLQMKSLKPEDTAVYYCNALPQRRYYYWGQGTQVTVSS”, the “polyreactivity (PSR sort gate)” value was “high polyreactivity”.
In the case of “QVQLVESWGGLVQAGGSLRLSCAASGITFTVYAMGWYRQAPGKEREFVAAISSSGSTTYAVSVKGRLTFSRDNAKNTVYLQMNSLKPEDTAVYYCAAEGYYRFSTAYFRRKYEYCGQGTQVTVSS”, the “polyreactivity (PSR sort gate)” value is reported as “low polyreactivity”.
In the case of “QVQLVESWGGLVQAGGSLRLSCAASGITLGYYSMGWYRQAPGKERELVAGISSSGDSTYYADSVKGRFTISRDNAKNSVYLQIKSLKPEDTAVYYCIADGWYFEYWGQGTQVTVSS”, the “polyreactivity (PSR sort gate)” value is reported as “low polyreactivity”.
In the case of “QVQLVESWGGLVQAGGSLRLSCAASGLIFQTYTMGWYKQAPGKERELVAAITSSGGRTYYADSVKGRFTISRDNAKNTVYLQKNSLKPEDTAVYYCAARGPPSAGMGYWGQGTQVTVSS”, the “polyreactivity (PSR sort gate)” value is reported as “high polyreactivity”.
With “QVQLVESWGGLVQAGGSLRLSCAASGLILFAYTMGWYRQAPGKERELVAGIDGSGGTTYYADSVKGRFTISRDNAKNTVYLQMNSLNPEDTAVYYCAASGFRWQGVKRMDYWGQGTQVTVSS” the “polyreactivity (PSR sort gate)” value was “low polyreactivity”.
For “QVQLVESWGGLVQAGGSLRLSCAASGNLFADYAMGWYRQAPGTERELVAAISRGGITSYADSVKGRFTISRDNAKNTVYLQMNSLKPEDTAVYYCATDRYDVYDSLGFGYWGQGSQVTVSS”, the “polyreactivity (PSR sort gate)” value was “low polyreactivity”.
For “QVQLVESWGGLVQAGGSLRLSCAASGRIFHRNTMGWYRQAPGKERELVAAIRSGSRTYYADSVKGRFTISRDNAKNTVYLQMNSLKPEDTAVYDCATTFGTPRYDYWGQGTQVTVSS”, the “polyreactivity (PSR sort gate)” value was “high polyreactivity”.
In the case of “QVQLVESWGGLVQAGGSLRLSCAASGRILGDYAMGWYRQAPGKEREFVAAIDYNGGSTNYADSVKGRFTISRDNAKNTVFLQMNSLKPEDTAVYYCAAPGFPSRNGFGYWGQGNQVTVSS”, the “polyreactivity (PSR sort gate)” value is reported as “low polyreactivity”.
For “QVQLVESWGGLVQAGGSLRLSCAASGRTFSRYAMGWYRQAPRKERELVAAISSRGGSTYYADSVKGRFTISRDFANNTVYLQMNSLYPEDTAVYYCNADSKVDPYGYDYWGQGTQVTVSS”, the “polyreactivity (PSR sort gate)” value was “high polyreactivity”.
For “QVQLVESWGGLVQAGGSLRLSCAASGRTNGYAMGWYRQAPGKERELVARITWRGGSTSYADSVKGRFTISRDNAKNTVYLQMNSLKREDTAVYYCAAGFYFPVYTYVRKRYYYWGQGTQVTVSS”, the “polyreactivity (PSR sort gate)” value was “high polyreactivity”.
With “QVQLVESWGGLVQAGGSLRLSCAASGSIFYRYAMGWYRQAPGKEREFVAAIRWRGGSTYYADSVKGRFTISRDNAKNTVYLQMNSLKPEDTAVYYCAAPTVQRYNYWGQGTQVTVSS” the “polyreactivity (PSR sort gate)” value was “high polyreactivity”.
In the case of “QVQLVESWGGLVQAGGSLRLSCAASGSIFYTNVMGWYRQAPGKERELVARIDSGGSTNYADSVKGRFTISRDNAKNTVYLQMNSLKPEDTAVYYCAADWYIYDYWGQGTQVTVSS”, the “polyreactivity (PSR sort gate)” value is reported as “low polyreactivity”.
For “QVQLVESWGGLVQAGGSLRLSCAASGSLFTSNAMVWYRQAPGKEREFVAGIDYSTGGTSYADSVKGRFTISRDNAKNNVYLQMNRLLPEDTAVYYCNADRWLVYVHTWEYDYWGQGTQVTVSS”, the “polyreactivity (PSR sort gate)” value was “low polyreactivity”.
With “QVQLVESWGGLVQAGGSLRLSCAASGSTFTPYVMGWSRQAPGKERELVAAISKRGGSTYYADSVKGRFTISRDNANNSVYLQMNSLKPADTAVYYCAAVQPAWGNGYWGQGTQVTVSS” the “polyreactivity (PSR sort gate)” value was “high polyreactivity”.
With “QVQLVESWGGLVQAGGSLRLSCAASRIIFRWYAMGWYRKAPGTERELVAAITSDGNTYYADSVKGRFTISRDNAKNTVYLQMNSLKPEDTAVYYCAARLSYYCRMNYWGQGTQVNVSS” the “polyreactivity (PSR sort gate)” value was “high polyreactivity”.
For “QVQLVESWGGLVQAGGSLSLSCAASGRIIARNAMGWYRQAPGKEREFVAAISFSDGSTYYADSVKGRFTISRDNAKNTVYLQMNSLKPEDSAVYYCNKGASPDDYDYWGQGTQVTVSS”, the “polyreactivity (PSR sort gate)” value was “low polyreactivity”.
With “QVQLVETAGGLVQAGGSLRLSSAASRSTFGPYAMGWYSQSPGKERELVAAISRRGTSTYYADSVKGRFTISRDNAKHTVYLQMNSLKPDDTAVYYCNAVTSSFYIRDSDYWGQGNQVTVSS” the “polyreactivity (PSR sort gate)” value was “high polyreactivity”.
For “QVQLVETGGCLVQAGGSLPLSCAASGRTFRPYAKGLYRPAPGKERELVAAITRGGSTKYADSVKGRFTISRDNAKNTVYLQMNSLKPEDTAVYYCAPDYSVYHRLFDYWGQGTQVTVSS”, the “polyreactivity (PSR sort gate)” value was “high polyreactivity”.
For “QVQLVETGGGLDQAGGSLRLSCAASGFTLHRNAKGWYRQAPRKERELVATNSWTGGSTYYADSVKGRFTISRDTAKNTVYLQMNSLKPEDTAVYYCAARGHWSIYGYYYLGATAFGYWGQGTQVTVSS”, the “polyreactivity (PSR sort gate)” value was “low polyreactivity”.
For “QVQLVETGGGLFQAGGSLRLSCAASGFSFGRYAMGWYRQAPGKERELVAAISRGGSSTYYADSVKGRFTISRDTAKNTVYLQMNSLKPEDTAVYYCNKVIIWARFDYWGQGTQVTVSS”, the “polyreactivity (PSR sort gate)” value was “high polyreactivity”.
In the case of “QVQLVETGGGLFQAGGSLRLSCAPSGFTFRYNAMGWYRQAPGKERELVAAISWSGGSTYYADSVKGRFTISRDNAKNTVYLQMNSLKPEDTAVYYSNAEYDDYAGEFDYWGQGTQVTGSS”, the “polyreactivity (PSR sort gate)” value is reported as “low polyreactivity”.
With “QVQLVETGGGLLQAGGSLRISSAASGRIFPSFSMGWYRQAPGKERELVAAITRGGASTYYADSVKGRFTISRDNAKNTVYLQMNSLKPEDTAVYYCAKDAYRYGGLSWTTGMDYWGQGTQVTVSS” the “polyreactivity (PSR sort gate)” value was “high polyreactivity”.
In the case of “QVQLVETGGGLLQAGGSLRLSCAASGFTFDFYAMGWYRQAPGKERELVAAINWSGSSTYYADSVKGRFTISRDNAKNTVYLQMNSLKPEDTAVYYCAAQVYYTLFPDVYTMYYWGQGTQVTVSS”, the “polyreactivity (PSR sort gate)” value is reported as “high polyreactivity”.
In the case of “QVQLVETGGGLVHAGGSLRLSCAASGSIFYAYDMGWYRQAPGKERELVAAINWSGDSTYYADSVKGRVTISRDNANNTVYLQMNSLKPEDTAVYYCAAVSGSGDSGEYDYWGQGTQVTVSS”, the “polyreactivity (PSR sort gate)” value is reported as “low polyreactivity”.
With “QVQLVETGGGLVHAGGSLRLSCAASGSILRPNAMGWYRQAPGKERELVAAITTSGGSTYYADSVKGRFTISRDNAKNTVYLQMNSLKPEDTAVYYCAAEYVYYYYLYLYYYWGQGTQVTVSS” the “polyreactivity (PSR sort gate)” value was “high polyreactivity”.
In the case of “QVQLVETGGGLVHAGGSLRLSSAASGRTFVENDMGWYRQAPGKERELVAAITYRGGRTFYADSVKGSFTISRDNAKNTVYLQMNSRKPEDTAVYSCNAVRRTGGHGVYWGQGTQVTVSS”, the “polyreactivity (PSR sort gate)” value is reported as “high polyreactivity”.
For “QVQLVETGGGLVQAGGILLLSCAASRIIFPWYTMGWYRQAPGKERELVAAINYSSGDTYADSVKGRFTISRDNAKNTVYLQMNSLKPEDTAVYYCDAEDPEYATYWYKYGYWGLGTQVTVSS”, the “polyreactivity (PSR sort gate)” value was “low polyreactivity”.
For “QVQLVETGGGLVQAGGILRLSCAASGSIFKAYAMGWYRQAPGKERELVAAITWSGGSTYYADSVKGRFTNSRDNAKNTVYLQMNSLKPEDTAVYYCAATLGLWAYYLYDYWGQGTQVTVSS”, the “polyreactivity (PSR sort gate)” value was “low polyreactivity”.
With “QVQLVETGGGLVQAGGILRLSCAASGSTFYRNAMGWYRQAPGKERELVAAINSTDSTNYADSVKGRFTISRDNAKNTVYLQMNSLKPEDTAVYFCAAVGVNLATAEYDYWGQGTQVTVSS” the “polyreactivity (PSR sort gate)” value was “low polyreactivity”.
In the case of “QVQLVETGGGLVQAGGILRLSCAATGSIFKAYDMGWYRKAPAKERELVAAITWSGGSTYYADSVKGRFTISRHNAKNTVYLQMNSLKPEDTAVYYCAAKLGLWAYYLYDYWGQGTQVTVSS”, the “polyreactivity (PSR sort gate)” value is reported as “low polyreactivity”.
In the case of “QVQLVETGGGLVQAGGSHSLSCAAAGSTFSRYAMGWYRQAPGTETELVAGISWSGGNTYYADSVKGRVTISRDNAKNTVYLQMNSLKPEETAVYYCAADFLEYWVVYGWAEYEYWAQGTQVTVSS”, the “polyreactivity (PSR sort gate)” value is reported as “low polyreactivity”.
In the case of “QVQLVETGGGLVQAGGSIRLTCAASGLTYTGNAIVWSRQAPGKEMECVAAIRWSAGSTYYADSVKGRFTISRDNAKNTVYLQMNSLKPEDTAVYYCNAALNVSGHYPNDYWGQGTQVTVSS”, the “polyreactivity (PSR sort gate)” value is reported as “low polyreactivity”.
For “QVQLVETGGGLVQAGGSLRISCAASGGIFVFYAMGWYRQAPGKERELVAAISWSGTSTYYADSVKGGFTISRDNAKYTVYLQMNRLKPEDTAVYYCAALYPYQYVRGGYWGQGTQVTVSS”, the “polyreactivity (PSR sort gate)” value was “high polyreactivity”.
With “QVQLVETGGGLVQAGGSLRISCAASGRIFGVYAMGWYRQAPGKERELVAAITRGASTYYADSVKGRFTISRDNAKNTVYLQMNILKPEDTAVYYCAVSQYRGIYRKYDYWGQGTQVTVSS” the “polyreactivity (PSR sort gate)” value was “high polyreactivity”.
For “QVQLVETGGGLVQAGGSLRLRCAPSGSTFSEYAMGWYRQAPGKERELVPAITSGGITNYADSVKGRFTISRDNSKNTVYFKMNSLKPEDTAVYYCNTQDVYGDPVESLVDYDYWGQGTQVTVSS”, the “polyreactivity (PSR sort gate)” value was “high polyreactivity”.
With “QVQLVETGGGLVQAGGSLRLSCAASGFIFYNAMGWYRQAPGKERELVAAISSGGNTNYADSVKGRFTISRDNAKNTVYLQMNSLKPEDTAVYYCNAGLYQYEAWAYYIRYDYWGQGTQVTVSS” the “polyreactivity (PSR sort gate)” value was “low polyreactivity”.
For “QVQLVETGGGLVQAGGSLRLSCAASGGIFEINVMGWYRQAPGKERELVAGINWSGTSTYFADSVKGRFTISRDNAKNTVYLQMNTLTPEDTSVYYCAAESYYRYVVPYDYWGQGTQVTVSS”, the “polyreactivity (PSR sort gate)” value was “high polyreactivity”.
For “QVQLVETGGGLVQAGGSLRLSCAASGIIFDGNTMGWYRQAPGKERELVAGIDFSDDSTNYADSVKGRFTISRDNAKNTVYLQMNSLKPEDTAVYYCAADTRSPSAHEVDYWGQGTQVTVSS”, the “polyreactivity (PSR sort gate)” value was “low polyreactivity”.
For “QVQLVETGGGLVQAGGSLRLSCAASGIIFSRYAMGWYRQAPGKERELVAAISTSGGRTFYADSVKGRFTISRDNAKNTVYLQMNSLKPEDTAVYYCAVDDLGWTTGGYLYLYGYWGQGTQVTVSS”, the “polyreactivity (PSR sort gate)” value was “high polyreactivity”.
With “QVQLVETGGGLVQAGGSLRLSCAASGITFFEYAMGWYRQAPGKERELVAGIRYSGSTTYYSDSVKGRFTISRDNAKNTVYLQMNSLKPEDSAVYYCNVDYYSGLYDYYSWGQGTQVTVSS” the “polyreactivity (PSR sort gate)” value was “low polyreactivity”.
In the case of “QVQLVETGGGLVQAGGSLRLSCAASGITFFRNAMGWYRQAPGKERELVAAISRGGGSTYYADSVKGRFTISRDNAKKTVYLQMNSLKPEDTAVYYCAEYKYGTGVKMDYWGQGTQVTVSS”, the “polyreactivity (PSR sort gate)” value is reported as “high polyreactivity”.
In the case of “QVQLVETGGGLVQAGGSLRLSCAASGRIFRGNTMGWYRQAPGKERELVAAITIRGRTYYADSVKGRFTISRDNAKNTVYLQMNSLKPEDTAVYYCAVASAGDNDYGGQGTQVTVSS”, the “polyreactivity (PSR sort gate)” value is reported as “low polyreactivity”.
